Data as given in the PETadex activity labels (doi:10.1038/s41586-022-04599-z).
Where a chain is given by its changes, count along the chain named.

B1: unnamed (protein)
chain: MSNPYQRGPNPTRSALTADGPFSVATYTVSRLSVSGFGGGVIYYPTGTSLTFGGIAMSPGYTADASSLAWLGRRLASHGFVVLVINTNSRFDYPDSRASQLSAALNYLRTSSPSAVRARLDANRLAVAGHSMGGGGTLRIAEQNPSLKAAVPLTPWHTDKTFNTSVPVLIVGAEADTVAPVSQHAIPFYQNLPSTTPKVYVELCNASHIAPMSNNAAISVYTISWMKLWVDNDTRYRQFLCNVNDPALCDFRTNNRHCQLEHHHHHH
B2: unnamed (protein)
chain: QTNPYARGPNPTAASLEASAGPFTVRSFTVSRPSGYGAGTVYYPTNAGGTVGAIAIVPGYTARQSSIKWWGPRLASHGFVVITIDTNSTFDYPSSRSSQQMAALRQVASLNGDSSSPIYGKVDTARMGVMGHSMGGGASLRSAANNPSLKAAIPQAPWDSQTNFSSVTVPTLIFACENDSIAPVNSHALPIYDSMSRNAKQFLEINGGSHSCANSGNSNQALIGKKGVAWMKRFMDNDTRYSTFACENPNSTAVSDFRTANCSLEHHHHHH
B3: unnamed (protein)
chain: SNPYQRGPNPTRSALTADGPFSVATYTVSRLSVSGFGGGVIYYPTGTSLTFGGIAMSPGYTADASSLAWLGRRLASHGFVVLVINTNSRFDYPDSRASQLSAALNYLRTSSPSAVRARLDANRLAVAGHSMGGGGTLRIAEQNPSLKAAVPLTPWHTDKTFNTSVPVLIVGAEADTVAPVSQHAIPFYQNLPSTTPKVYVELDNASHFAPNSNNAAISVYTISWMKLWVDNDTRYRQFLCNVNDPALSDFRTNNRHCQLEHHHHHH
B4: unnamed (protein)
chain: QTNPYARGPNPTAASLEASAGPFTVRSFTVSRPSGYGAGTVYYPTNAGGTVGAIAIVPGYTARQSSIKWWGPRLASHGFVVITIDTNSTLDQPESRSSQQMAALRQVASLNGTSSSPIYGKVDTARMGVMGWSMGGGGSLISAANNPSLKAAAPQAPWHSSTNFSSVTVPTLIFACENDSIAPVNSSALPIYDSMSRNAKQFLEINGGSHSCANSGNSNQALIGKKGVAWMKRFMDNDTRYSTFACENPNSTAVSDFRTANCSLEHHHHHH
B5: unnamed (protein)
chain: B4 chain with R197Q, N206K
B6: unnamed (protein)
chain: B4 chain with E94S, H159D, A253R

Substrate: PET
Assay: Proxy for plastic degradation [Released monomer concentration (HPLC/LC-MS) (MHET+TPA)]
[1] = pH 6.5, 30 °C, part of the chain shown
[2] = pH 6.5, 40 °C, part of the chain shown
[3] = pH 7, 30 °C, part of the chain shown
[4] = pH 7, 40 °C, part of the chain shown
[5] = pH 7.5, 30 °C, part of the chain shown
[6] = pH 7.5, 40 °C, part of the chain shown
[7] = pH 8, 30 °C, part of the chain shown
[8] = pH 8, 40 °C, part of the chain shown

| Protein | Proxy for plastic degradation (pH 6.5, 30 °C) | Proxy for plastic degradation (pH 6.5, 40 °C) | Proxy for plastic degradation (pH 7, 30 °C) | Proxy for plastic degradation (pH 7, 40 °C) | Proxy for plastic degradation (pH 7.5, 30 °C) | Proxy for plastic degradation (pH 7.5, 40 °C) | Proxy for plastic degradation (pH 8, 30 °C) | Proxy for plastic degradation (pH 8, 40 °C) | Proxy for plastic degradation [1] | Proxy for plastic degradation [2] | Proxy for plastic degradation [3] | Proxy for plastic degradation [4] | Proxy for plastic degradation [5] | Proxy for plastic degradation [6] | Proxy for plastic degradation [7] | Proxy for plastic degradation [8] | also measured |
| --- | --- | --- | --- | --- | --- | --- | --- | --- | --- | --- | --- | --- | --- | --- | --- | --- | --- |
| B1 | 0.18 mM | 0.8 mM | 0.23 mM | 2 mM | 0.23 mM | 3 mM | 0.37 mM | 4 mM |  |  |  |  |  |  |  |  |  |
| B2 |  |  |  |  |  |  |  |  | 0.15 mM | 0 mM | 0.15 mM | 0.3 mM | 0.2 mM | 1 mM | 0.15 mM | 2 mM |  |
| B3 | 0.17 mM | 0.2 mM | 0.2 mM | 0.4 mM | 0.22 mM | 1.9 mM | 0.25 mM | 2.3 mM |  |  |  |  |  |  |  |  |  |
| B4 |  |  |  |  |  |  |  |  | 0.6 mM | 0.5 mM | 1.2 mM | 9 mM | 2.3 mM | 12 mM | 2.9 mM | 13 mM |  |
| B5 |  |  |  |  |  |  |  |  | 0.7 mM | 1 mM | 1.5 mM | 12 mM | 2.9 mM | 19 mM | 3.6 mM | 32 mM | Proxy for plastic degradation (pH 8, 1 h, part of the chain shown): 13.4 mM; Proxy for plastic degradation (pH 8, 2 h, part of the chain shown): 31.1 mM; Proxy for plastic degradation (pH 8, 3 h, part of the chain shown): 48.7 mM; Proxy for plastic degradation (pH 8, 4 h, part of the chain shown): 66.7 mM; Proxy for plastic degradation (pH 8, 5 h, part of the chain shown): 88 mM; Proxy for plastic degradation (pH 8, 6 h, part of the chain shown): 109 mM; Proxy for plastic degradation (pH 8, 7 h, part of the chain shown): 131 mM; Proxy for plastic degradation (pH 8, 8 h, part of the chain shown): 148 mM; Proxy for plastic degradation (pH 8, 9 h, part of the chain shown): 163 mM; Proxy for plastic degradation (pH 8, 10 h, part of the chain shown): 175 mM; Proxy for plastic degradation (pH 8, 11 h, part of the chain shown): 185 mM; Proxy for plastic degradation (pH 8, 12 h, part of the chain shown): 195 mM; Proxy for plastic degradation (pH 8, 13 h, part of the chain shown): 204 mM; Proxy for plastic degradation (pH 8, 13.5 h, part of the chain shown): 208 mM |
| B6 |  |  |  |  |  |  |  |  | 0.1 mM | 0 mM | 0.15 mM | 0 mM | 0.25 mM | 0 mM | 0.6 mM | 0.2 mM |  |
